Positions count from the first letter of the chain named.
B1: IgG1 antibody comprising the VH and VL domains of scFv F003A09 (antibody, V domains shown)
VH: QVQLVQSGAEVKKAGSSVKVSCKASGDTFSNFAISWVRQAPGHGLEWVGGIIPVFNTADYAQNFTDRVTISADKATKTVYMELRSLRSDDTAVYFCARTKIELDNDAFDIWGQGTLVTVSS
VL: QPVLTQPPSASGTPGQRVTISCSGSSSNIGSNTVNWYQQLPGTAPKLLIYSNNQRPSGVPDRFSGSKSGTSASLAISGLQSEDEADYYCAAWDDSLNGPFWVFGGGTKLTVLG
notes: Whole IgG1
B2: IgG1 antibody comprising the VH and VL domains of scFv F003F01 (antibody, V domains shown)
VH: EVQLVQSGAEVRKPASSVKVSCKTSGGSFNDYSFNWVRQAPGQGLEWMGSIIPVFDMADYGQNFQGRLTITADESTTTAYMELSDLTPMDTAIYYCARVAMVGATHFDIWGQGTLVTVSS
VL: QSVLTQPPSASGTPGQRVTISCSGGSSNIGSNPVNWYQQVPGTAPKLLIYLSDQRPAGVPDRFSGSKSGTSASLAISGLQSEDEADYYCSTWDDSLNDPVVFGGGTKVTVLG
notes: IgG1; The printed VL start (142) looks late against the printed VL CDR1 (159-171)
B3: IgG1 antibody comprising the VH and VL domains of scFv F002G03 (antibody, V domains shown)
VH: QVQLVQSGAEVKKPGSSVKVSCKASGGTFNRYAISWVRQAPGQGLEWMGGIIPMFATPIYSQKFQDRVTITADESTSTAYMELSSLRSEDTAVYYCARDRTDYYDTDGYQSPDSWGKGTLVTVSS
VL: DIQMTQSPSTLSASIGDRVTITCRASQGINNYLAWYQQKPGRAPKLLIYAASSLQSGVPSRFSGSGSGTDFTLTISSLQPEDFATYYCLQDSDYPLTFGGGTKLEIKR
notes: Whole IgG1
B4: IgG1 antibody comprising the VH and VL domains of scFv F003F09 (antibody, V domains shown)
VH: B1 VH with Q1E, K12R, A14P, S30N, D66G, S88Y, Q113R, L116T
VL: LPVLTQPPSASGTPGQRVTISCSGSTSNIGSNAVVWYQQLPGAAPKLLIYSNDQRPSGVPDRFSGSRSGTSASLAISGLQSEDEADYYCAAWDDSRDGPWVFGGGTKVTVLG
notes: Whole IgG1
B5: IgG1 antibody comprising the VH and VL domains of scFv F081C09 (antibody, V domains shown)
VH: QVQLVQSGAEVKKPGSSVRVSCKASGGSFSDYAIHWVRQAPGQGLEWMGGIIPIFGTANYAQKFQGRVTITADESTSTAYMELSSLRSEDTAVYYCAREAQYDDAFDIWGQRTMVTVSS
VL: QSVLTQPPSVSAAPGQKVTISCSGSTSNIGNNYVSWYQQHPGKAPKLMIYDVSKRPSGVPDRFSGSKSGNSASLDISGLQSEDEADYYCAAWDDSLSEFLFGTGTKLTVLG
notes: Whole IgG1; also called F0081C09
B6: IgG1 antibody comprising the VH and VL domains of scFv F076F10 (antibody, V domains shown)
VH: EVQLVQSGAEVKKPGSSVKVFCKTSGGTFSSYAFGWVRQRPGQGLEWMGGIIPNFDAANYAQKFQDTVAFTADTSTNTLYLELSSLTSDDTAVYYCAREVGVHASGLGAFDIWGRGTLVTVSS
VL: QSVLTQPPSVSGAPRQRVTISCSGSSSNIGDNVVNWYQQLPGKAPKLLIYYDDLLPSGVSDRFSGSKSGTSASLAISGLQSEDEADYFCAAWDDSLDAYVFGTRTKVTVLG
notes: Whole IgG1; also called F0076F10
B7: IgG1 antibody comprising the VH and VL domains of scFv F002C08 (antibody, V domains shown)
VH: EVQLVESGAEVKKPGSSVKVSCKASGGTFSSYAISWVRQAPGQGLEWMGGIIPIFGTANYAQKFQGRVTITADESTSTAYMELSSLGSEDTAVYYCARESLTGDSELDLWGKGTLVTVSS
VL: B5 VL
notes: IgG1
B8: IgG1 antibody comprising the VH and VL domains of scFv F002D02 (antibody, V domains shown)
VH: EVQLVQSGAEVKKPGSSVKVSCKASGGTFSSYAISWVRQAPGQGLEWMGGIIPIFGTANYAQKFQGRVTITADESTSTAYMELSSLRSEDTAVYYCAREDIVGAVDGFDIWGRGTLVTVSS
VL: B5 VL
notes: IgG1
B9: IgG1 antibody comprising the VH and VL domains of scFv F076G06 (antibody, V domains shown)
VH: B1 VH with V2M, K12R, A14P, S30N, D66G, S88Y, L116M
VL: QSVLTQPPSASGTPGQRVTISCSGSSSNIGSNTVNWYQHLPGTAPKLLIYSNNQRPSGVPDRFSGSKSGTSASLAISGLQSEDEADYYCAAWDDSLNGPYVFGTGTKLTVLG
notes: IgG1
B10: IgG1 antibody comprising the VH and VL domains of scFv F076C06 (antibody, V domains shown)
VH: QVQLVQSGPEVKKPGSSVKVSCRASGGTFSTYAFSWVRQAPGQGLEWMGGIIPVFETPIYAQKLQGRLTITADTSTDTAYMELSNLRSGDTAVYYCAREWGDYYSSVSSGALHYWGRGTLVTVSS
VL: QAVLTQPSSASGTPGQRVTISCSGSSSNIGNNAVNWYQQLPGTAPKLLIYNNNQWPSGVPDRFSGSKSGTSASLAVSGLQSEDEADYYCAAWDDSLNGYVFGTGTQLTVLS
notes: IgG1

Each binder was assayed against T1, Chemokine beta-4 (CK-β4) (human, UniProt P78556 27-96, 125I label in the CCR6 membrane binding assay (Example 5)) (assay: inhibition of 125I-CK-β4 binding to CCR6 membranes by IgG1, Expt 1).
T1 construct: also called CCL20; MIP-3α
Procedure: (§1) The ability of anti-CK-β4 antibodies of the invention to inhibit the binding of CK-β4 to CCR6 may be tested in the following assay. This assay is performed in 96-well plates and each sample is tested in triplicate. A 1:3 serial dilution of anti-CK-β4 antibody is made starting with 200 nM solution of anti-CK-β4 antibody in binding buffer (50 mM HEPES, pH7.0, 5 mM MgCl₂, 1 mM CaCl₂, 0.5% protease free BSA, 0.033% CHAPS, 0.05% Tween 20, 0.05% sodium azide). To fifty microliters of each dilution of antibody are added 25 microliters of CCR6 membranes (40 micrograms/ml in binding buffer; available from Upstate Biotechnology, Charlottesville, Va. Catalog number 50-139M.) Lastly 25 microliters of ¹²⁵I-CK-β4 (0.8 nM in binding buffer) are added to the wells containing the mixture of antibody and membranes, making for a 100 microliter reaction volume. Total binding is measured using 50 microliters of binding buffer in lieu of 50 microliters of antibody dilution.
(§2) The reaction is incubated for 3 hours at room temperature. The plates are harvested in a Tomtec Cell Harvester. The reaction is washed through a filtermat B (Perkin Elmer Life Sciences, Inc. Boston, Mass. product Number 1450-521) presoaked in 0.3% polyethylamine using an ice cold wash buffer (25 mM Hepes, 5 mM MgCl₂, 1 mM CaCl₂, 0.5M NaCl, and 0.05% Tween 20). The filter is then dried and radioactivity bound to the filter is measured using a Wallac MicroBeta Trilux (Perkin Elmer Life Sciences, Inc.).

T1 sequence (P78556 27-96 limits assumed): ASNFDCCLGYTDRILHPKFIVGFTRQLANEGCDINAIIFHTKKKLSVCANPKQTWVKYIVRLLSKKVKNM

Point of comparison: B1, EC50 0.3 nM. Against it:
- B2 — within 1.5-fold, 0.2 nM
- B3 — 14-fold higher, 4.1 nM

The binders below were run against T1, Chemokine beta-4 (CK-β4) (assay: inhibition of 125I-CK-β4 binding to CCR6 membranes by IgG1, Expt 2).
Procedure: as §1, §2

Point of comparison: B5, EC50 0.09 nM. Against it:
- B4 — 27-fold higher, 2.4 nM
- B6 — 5.4-fold higher, 0.49 nM

What follows are binders tested against T1, Chemokine beta-4 (CK-β4) (assay: inhibition of 125I-CK-β4 binding to CCR6 membranes by IgG1, Expt 3).
Procedure: as §1, §2

Point of comparison: B8, EC50 4.5 nM. Against it:
- B7 — 2-fold lower, 2.2 nM
- B9 — 2.6-fold lower, 1.7 nM
- B1 — 9.8-fold lower, 0.46 nM
- B10 — 2.5-fold lower, 1.8 nM
- B2 — 35-fold lower, 0.13 nM
